Measurements reported in patent US20240052034A1 (PANDION OPERATIONS, published 2024).

Columns and labels:
human PD-1 = biological target: T1, human PD-1 (human, UniProt Q15116 25-167, limits assumed); test: ELISA: plate-coated PD-1, detection by anti-kappa-HRP
T1 construct: also called huPD-1

mouse PD-1 = biological target: T2, mouse PD-1 (mouse, UniProt Q02242 25-167, limits assumed); test: as above
T2 sequence (looked up): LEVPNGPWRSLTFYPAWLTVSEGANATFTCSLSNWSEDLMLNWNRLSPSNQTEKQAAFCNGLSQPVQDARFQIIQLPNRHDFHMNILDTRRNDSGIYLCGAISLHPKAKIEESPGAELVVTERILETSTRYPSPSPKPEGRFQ

cynomolgus PD-1 = biological target: T3, cynomolgus PD-1 (cynomolgus, UniProt B0LAJ3 25-170); test: as above
T3 construct: also called cyno PD-1

Fc-tagged mouse PD-1 = biological target: T4, Fc-tagged mouse PD-1 (mouse, UniProt Q02242 25-167, limits assumed); test: BLI (biosensor): Fc-tagged PD-1 on anti-human IgG Fc tips, fragment in solution
T4 construct: Printed 'Fe-tagged', read as Fc-tagged; also called Fe-tagged mouse PD-1 (so in the source); not shown: Fc tag
T4 sequence (looked up): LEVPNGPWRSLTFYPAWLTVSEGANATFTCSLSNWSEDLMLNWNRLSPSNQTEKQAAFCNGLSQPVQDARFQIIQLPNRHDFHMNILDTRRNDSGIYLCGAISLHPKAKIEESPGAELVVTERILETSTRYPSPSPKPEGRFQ
Method: (§1) Anti-human IgG Fc (AHC) or Streptavidin (SA) biosensor were equilibrated in assay buffer for 20 minutes. Fe-tagged mouse and cynomolgus PD-1 was diluted to 5 μg/mL and biotinylated huPD-1 article was diluted to 0.5 μg/mL in assay buffer (1×PBS, 1% BSA, 0.05% Tween20). […] PD-1 was loaded on tips for 180 s followed by a 180 s association phase with PD-1 and 180 s dissociation phase in assay buffer.

[1] = biological target: T5, Fc-tagged cynomolgus PD-1 (cynomolgus, UniProt B0LAJ3 25-170); test: as above
T5 construct: Printed 'Fe-tagged', read as Fc-tagged; also called cyno PD-1; Fe-tagged cynomolgus PD-1 (so in the source)
Method: as §1

biotinylated huPD-1 = biological target: T6, biotinylated huPD-1 (human, UniProt Q15116 25-167, limits assumed, biotinylated (site not stated)); test: BLI (biosensor): biotinylated huPD-1 on streptavidin tips, fragment in solution
T6 construct: also called human PD-1
Method: as §1

T5 sequence (B0LAJ3 entry or part of it limits assumed): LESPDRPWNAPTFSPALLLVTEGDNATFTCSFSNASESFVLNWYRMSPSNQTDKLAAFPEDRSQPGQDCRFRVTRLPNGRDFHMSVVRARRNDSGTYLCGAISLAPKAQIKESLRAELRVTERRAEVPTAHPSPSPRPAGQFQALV
T6 sequence (Q15116 25-167 limits assumed): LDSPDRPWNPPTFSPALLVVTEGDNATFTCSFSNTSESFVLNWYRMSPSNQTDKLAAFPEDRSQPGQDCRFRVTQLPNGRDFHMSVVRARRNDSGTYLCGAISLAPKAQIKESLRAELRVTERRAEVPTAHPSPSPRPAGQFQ
T3 sequence (B0LAJ3 entry or part of it limits assumed): as the sequence (B0LAJ3 entry or part of it limits assumed) above
T1 sequence (Q15116 25-167 limits assumed): as the sequence (Q15116 25-167 limits assumed) above

| Binder | binding result (human PD-1) | binding result (mouse PD-1) | binding result (cynomolgus PD-1) | binding result (Fc-tagged mouse PD-1) | Kd [1] | Kd (biotinylated huPD-1) |
| --- | --- | --- | --- | --- | --- | --- |
| PD1AB69 (bispecific antibody, human IgG1, kappa) heavy: EVQLLESGGGLVQPGGSLRLSCAASGFTFSSYDMSWVRQAPGKGLEWVSGITISGGSTYYADSVKGRFTISRDNSKNTLYLQMNSLRAEDTAVYYCARGRGGSGWLDYWGQGTTVTVSSASTKGPSVFPLAPSSKSTSGGTAALGCLVKDYFPEPVTVSWNSGALTSGVHTFPAVLQSSGLYSLSSVVTVPSSSLGTQTYICNVNHKPSNTKVDKKVEPKSCDKTHTCPPCPAPEAAGAPSVFLFPPKPKDTLMISRTPEVTCVVVDVSHEDPEVKFNWYVDGVEVHNAKTKPREEQYNSTYRVVSVLTVLHQDWLNGKEYKCKVSNKALPAPIEKTISKAKGQPREPQVYTLPPSREEMTKNQVSLTCLVKGFYPSDIAVEWESNGQPENNYKTTPPVLDSDGSFFLYSKLTVDKSRWQQGNVFSCSVMHEALHNHYTQKSLSLSPGGGGSEGGGSEGGGSEDIQMTQSPSSLSASVGDRVTITCQASRDILNYLAWYQQKPGKAPKLLIYAASSLQSGVPSRFSGSGSGTDFTLTISSLQPEDFATYYCQQSYSTPPTFGCGTKVDIKGGGGSGGGGSGGGGSGGGGSEVQLVQSGAEVKKPGASVKVSCKASGYSFTTYYMHWVRQAPGQCLEWMGIINPSGGSTSYAQKFQGRVTMTRDTSTSTVYMELSSLRSEDTAVYYCASGWVYWGQGTLVTVSS light: not shown | binds | binds | binds | – | – | – |
| scFv moiety of the PD1AB37 (scFv, also called PD1AB37 scFv) scFv: EVQLLESGGGLVQPGGSLRLSCAASGFTFSSYDMSWVRQAPGKGLEWVSGITISGGSTYYADSVKGRFTISRDNSKNTLYLQMNSLRAEDTAVYYCARGRGGSGWLDYWGQGTTVTVSSGGGGSGGGGSGGGGSGGGGSDIVMTQSPDSLAVSLGERATINCKSSQSVLYSPNNKNYLAWYQQKPGQPPKLLIYWASTRESGVPDRFSGSGSGTDFTLTISSLQAEDVAVYYCQQYYTTPPTFGQGTRLEIK | – | – | – | no binding | 58.6 nM | 89.9 nM |
| Fab moiety of the PD1AB53 (Fab, V domains shown, also called PD1AB53 Fab) VH: EVQLLESGGGLVQPGGSLRLSCAASGFTFSSYDMSWVRQAPGKGLEWVSGITISGGSTYYADSVKGRFTISRDNSKNTLYLQMNSLRAEDTAVYYCARGRGGSGWLDYWGQGTTVTVSS VL: not shown | – | – | – | no binding (tested: PD1AB53 Fab: dilution series from 500 nM) | 30.3 nM | 32.6 nM |
